Results reported in patent US20240025993A1, “CD19 BINDING MOLECULES AND USES THEREOF” (NOVARTIS AG, priority 2020, published 2024).

Each substance was assayed against human Fc gamma receptor 1A (human) (UniProt P12314) (assay: SPR (Biacore T200), antibody amine-coupled on CM5 chip, receptor as analyte).
Chain of human Fc gamma receptor 1A (human) (P12314 16-288 limits assumed): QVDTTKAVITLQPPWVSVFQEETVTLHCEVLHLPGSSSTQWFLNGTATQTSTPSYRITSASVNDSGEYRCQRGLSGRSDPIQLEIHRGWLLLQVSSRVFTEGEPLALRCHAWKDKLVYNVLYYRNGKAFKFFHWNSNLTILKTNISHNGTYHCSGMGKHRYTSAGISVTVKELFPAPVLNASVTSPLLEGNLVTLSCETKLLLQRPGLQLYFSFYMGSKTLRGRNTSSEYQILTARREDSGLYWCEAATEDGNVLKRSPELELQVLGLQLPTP
Work on “Anti-CD3 human IgG1 antibody, DAPASK Fc variant (D265A/P329A/S267K)” yielded a Maximum response at 100 nM hFcgammaRIA (RU) of 13 RU.
“Anti-CD3 human IgG1 antibody, DANAPA Fc variant (D265A/N297A/P329A)” was tested, and the Maximum response at 100 nM hFcgammaRIA (RU) was 11 RU.
Work on “Anti-CD3 human IgG1 antibody, LALAPG Fc variant (L234A/L235A/P329G)” yielded a Maximum response at 100 nM hFcgammaRIA (RU) of 18 RU.
“Anti-CD3 human IgG1 antibody, GADAPASK Fc variant (G237A/D265A/P329A/S267K)” showed a Maximum response at 100 nM hFcgammaRIA (RU) of 10 RU.
Substance “Anti-CD3 human IgG1 antibody, GADAPA Fc variant (G237A/D265A/P329A)” has a Maximum response at 100 nM hFcgammaRIA (RU) of 16 RU.
Work on “Anti-CD3 human IgG1 antibody, LALAGA Fc variant (L234A/L235A/G237A)” yielded a Maximum response at 100 nM hFcgammaRIA (RU) of 15 RU.
Work on “Anti-CD3 human IgG1 antibody, LALASKPA Fc variant (L234A/L235A/S267K/P329A)” yielded a Maximum response at 100 nM hFcgammaRIA (RU) of 9 RU.
